Our source for the Kd values is PMC5500003, “RNA stores tau reversibly in complex coacervates”.

This data set addresses tau 4R2N (Homo sapiens, UniProt P10636-8 1-441). The experiment in a line: EMSA; Hill coefficient 2.6; EMSA: 100 mM sodium acetate pH 7.0, 0.5 mM EDTA, 0.5 mM MgCl2, 0.01% IGEPAL CA-630, RNase inhibitor, 37 C 10 min, TBE 8% gel; ITC: 20 mM ammonium acetate pH 7. As to conditions: protein: recombinant; chain copies: 2; label: 3' biotin kit RNA. A general note: Mobility shift assays separate free from complexed probe on a gel.

Chain of tau 4R2N (P10636 other isoform, or with tags, fused parts or gaps): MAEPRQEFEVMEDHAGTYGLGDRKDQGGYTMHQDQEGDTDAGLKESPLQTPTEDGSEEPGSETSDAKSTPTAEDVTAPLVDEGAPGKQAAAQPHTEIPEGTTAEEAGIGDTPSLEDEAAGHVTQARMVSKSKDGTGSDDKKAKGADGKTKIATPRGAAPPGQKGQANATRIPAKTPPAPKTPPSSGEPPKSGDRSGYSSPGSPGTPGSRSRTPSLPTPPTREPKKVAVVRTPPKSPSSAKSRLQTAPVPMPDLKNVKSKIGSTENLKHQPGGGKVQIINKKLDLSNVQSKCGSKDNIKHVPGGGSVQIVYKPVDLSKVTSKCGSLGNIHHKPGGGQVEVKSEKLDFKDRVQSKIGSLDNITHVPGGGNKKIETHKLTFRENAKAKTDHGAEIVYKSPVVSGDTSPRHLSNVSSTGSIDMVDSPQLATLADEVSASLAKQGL

By Kd is commonly meant the free concentration of one partner at which half of the binding sites on the other are occupied at equilibrium, for simple one-to-one binding. On to CCUGGUUUUUAAGGAGUGUCGCCAGAGUGCCGCGAAUGAAAAA (ssRNA) [RNA43], for which the Kd came out at 832 ± 94 nM.
